Drawing on a protein production outcome set (Wang et al. 2014), this text covers protein production for 20 sequences.

A short description of this data set: label from the status in PepcDB records.

With “MHLNTLAGRSYNDLMQYPVFPWILADYDSEEVDLTNPKTFRNLAKPMGAQTDERLAQYKKRYKDWEDPNGETPAYHYGTHYSSAMIVASYLVRMEPFTQIFLRLQGGHFDLADRMFHSVREAWYSASKHNMADVKELIPEFFYLPEFLFNSNNFDLGCKQNGTKLGDVILPPWAKGDPREFIRVHREALECDYVSAHLHEWIDLIFGYKQQGPAAVEAVNVFHHLFYEGQVDIYNINDPLKETATIGFINNFGQIPKQLFKKPHPPKRVRSRLNGDNAGISVLPGSTSDKIFFHHLDNLRPSLTPVKELKEPVGQIVCTDKGILAVEQNKVLIPPTWNKTFAWGYADLSCRLGTYESDKAMTVYECLSEWGQILCAICPNPKLVITGGTSTVVCVWEMGTSKEKAKTVTLKQALLGHTDTVTCATASLAYHIIVSGSRDRTCIIWDLNKLSFLTQLRGHRAPVSALCINELTGDIVSCAGTYIHVWSINGNPIVSVNTFTGRSQQIICCCMSEMNEWDTQNVIVTGHSDGVVRFWRMEFLQVPETPAPEPAEVLEMQGPLSHPHPNPIEVRNYSRLKPGYRWERQLVFRSKPTMHTAFDRKDNAHPAEVTALGISKDHSRILVGDSRGRVFSWSVSDQPGRSAADHWVKDEGGDSCSGCSVRFSLTERRHHCRNCGQLFCQKCSRFQSEIKRLKISSPVRVCQNCYYNLQHERGSEDGPRNC”, the protein production entry is listed as “failed”.

Take “MHMKTVRQERLKSIVRILERSKEPVSGAQLAEELSVSRQVIVQDIAYLRSLGYNIVATPRGYVLAGGKSGVSRLVAVKHAPEEIKEELLCVVRNGGRIVDVIVEHPVYGEIRGIIDVSSEEEVLKFVNLMEMAKTEPLLTLSGGVHLHTIEAPDEETMERIMRELKKKGFLIEEG”: the protein production result is listed as “not failed”.

Take “MHNAGKQVAAPLETPMPAATAALLAERADHPLYVASVEKGMRVLEAFDAARDSLSLTDIVQLTGMGKSAAQRFTHTWEALGYLAKDPQSRRYRLGPKVVELSYYFLRSDHLVSLAAPHLVALREHCGLAVNMSVLSGDDMIYLLRLPSRQLTLVEMLPGRRMPAWSNSAGRMLLSQRDDASVRDLLARAAPQLYTPRTQTDPQALLAEIRQAREDGYAITQDQVLLNQMGVATLLRDERRQPLAAISVTAAADEYPRARLVAEIVPQMLKAAYAICGA”: the protein production entry was “failed”.

For the sequence “MHNKKWDLRIICAHAFTILIWGSAFPAIRMGLASYTPEHLTLLRLLIASFILLLFSFIYKLRIPDLKDIPAIFIFGALGFTFYHIALNYGEKTVNAGSASLIVSVTPIVTAILASIFLNEKMKLNGWIGGGISFIGIALISFSQGDAIQLNSGGFFILLAAISESLYFVFQTSYLKKYGFLPFTIYTILSSTVCMLIFFPGMYTEILAAPLEVNMSVIYLGLFPTVLPYIALAYIISHSGAAEATSSLYLTPVTACFVAWIWLGEVPTFVSIIGGGITILGILIVHIPVLRKEKHRNLANNQSV”, the protein production entry is “failed”.

On to “MHPCHRPSFAFLRHPLSIVVCLALLAGCSTSPLQFPEPLLAKSEKAKATEGVALVSDDGKKAPASLAVPKTEFSGTPTSPRSIVGGVVDRMDKAILDDKKADISLNVEDVQLAAFINEVFGNILGLPFEIESALKEKTDRVTVRLEQPQTAQMVYEVARQVLVNYGVEILHQGDIYRFQIKQVGLSPDEPPILISGEARPSVPIAYRPVFQFVALHSVDPKDVIPWLNSAYEKSGLSVMADGARSGLMLKGMSSIVNQATEAVRLLDQPFMRGRHSLRIDPAFVSAADMASQLKTVIAAQGYSVGIGEAVGSIMLVPLESSNGLIVFANDGQLLDLVREWAQQVDRAPMAVAAGIGEEKEGLFFYEARNTRVTELAKSLRALVSGFAGEGAYGITSGLQSSASKRSGGGRRAGDDGAAPAVAPLLQAAGAAALVGGDGANGLLGGLAAGISGSGTIVEDENRNAILFRGAARTWQQMQGLLREMDKPARQVLIEVTVASVSLSDTQELGVEWEMLNGSFNSATSTGSKGSAGKGGFNYVINTAGGNTAAIQAMADNQRVRVLATPRILVKSGEQANINVGRDIPIPTAQVNDDSTTAGSTNLRNEIAYRSTGTILNVAPVVYSDSRVDLTVSQELSDSGGSSGGGGKASGGGISAPEISRTSLETSLTLKSGGSVLMGGLIRDNITDSNAGVPLLKDIPGIGFLFGRQKAVKTREEVIMLIQPYVLESDADAREVTEKLHAMLSKTLACSDRPGACRME”, for which the protein production result is given as “failed”.

In the case of “MHPFRWQRSRQRSSALSFLKKAFYQIPVIGWLVKDAAHGSPEAPYFFLFNAVVVGAALIYTFGYPLVITVAVAGAFAGIAGLVVLTAGDAFDKRAKQPATDVRRAKTATVRPLKKAA”, the protein production entry is listed as “failed”.

For “MHPPIVMSTLPPSVAPPIGTAPQRHSLVSLRRLSWLRWALLAGQALLLVSCESLAGIALPYKPLLFLFAVQTVFNVFTVARLHWHTRHGTAPSDAELMVQMMVDLTALSAILFYTGGATNPFVSFYLPGLAIASAILPWRLVVTLAAYALACYSMLLLEYIPLDLHNPDNAVNYHLAGMWLNFVASAVMIAFFVARLSNALRQRDAQLNEARELLLREARVEALNDQAAAVAHEIGTPLATLAVIAGELRADAENTNRSDTPVADYQADLRTMEQQLELCRSILARLRADHETLAPQRIDAWLAPFVERWQLRHPQASLQAGAAPDAAAQAVDTARISQILTIALDNAARSQQAAGHDHRQGPPLRLDIAREADALVYRVTDHGHGLPPGLRARLGESPVASAHGGQGIGLYLAQSAARQLGGQISWHDNPAGGTVLELRLPLTAASERAIAAQPDFQP”, the protein production result is listed as “failed”.

Turning to “MHPVKALKQGVKNGTMPIIARFYGIIIKMFFNEHLPPHFHALYGEYNAIFNINTLEMIEGDMPLRARKLVVEWAENHQKELEIMWETKEFKQLPGLELEHHHHHH”, the protein production result is “not failed”.

On to “MHRHVVTKVLPYTPDQLFELVGDVDAYPKFVPWITGMRTWNGRVDGAVSTVDAEAQVGFSFLREKFATRVRRDKDARSIDVSLLYGPFKRLNNGWRFMPEGDATRVEFVIEFAFKSALLDAMLAANVDRAAGKLIACFEARAQQLHGALEHHHHHH”, for which the protein production entry is reported as “not failed”.

With “MHSIRNFFCGQWSSSVRLDEKTVIITGANTGIGKETARDLARRGARVVMACRDLEKAEAARRELMDNSGNQNIVVKKLDLADTKSIKAFAELINKEEKQVNILINNAGIMMCPYSKTADGFEMQFGVNHLGHFLLIYLLLDLLKKSTPSRIVNVASVAHTWSGIHLEDINSEKVYSPRRAYGQSKLANILCTRSLAKRLQGSGVNVYSLHPGVVQSELFRNLSKPAQIAFKVFSPFTKTTSQGAQTTIYCAIEPELDRESGGYYSDCGPAQCSREASDDEMAQKLWELSCQMLGIIWD”, the protein production entry was “failed”.

Take “MHSNSWMSCKAVDNAEKEALLLQLQADADGPRRRCEIRERSLGQAVMLALLSLLLVLLGGWLASLPSAWQLRSAQLWFWLPGALMLGAGLVGLAAAEALRRRHGQQVLALTPDTLQFANAPDPTPWVCFDGFELEQRYLSLGLVFSVIAGSRAPALAPACFKSLAAPHAWPVAAGMRVRLWLFNPMLDGQRLDFQALTDLLYAYLNAAQARSTLGQLFPEVQRVGATQ”: the protein production result was “failed”.

As for “MHSQTLRLASYNIQKCVGLDLRRQPRRILQVLDAMGARIAVLQEADKRLPPRPAALPHFVLEEAGWQVVDLGGAGSLGWHGNAVIWKGAGITQLASAHHDLPGFEPRGAVRVEFDTPIGPLRVLGLHLGLLPASRRDQIVHLAHDLERLPPMPTVWAGDFNEWSRQPVLDHLAPMLRFLPARPSFPAPRPLGALDRIAHSPELSAVAHGVFAERPAPIASDHLPVWADLTRPV”, the protein production result was “failed”.

Take “MHVFGLPAIGALAGTQAYWVSLVDVYAAQARIAATGMYPSGRVKRAFPGCCRGYWGDAGGSVRAGWISAAWPYGRFDRSGRPVGGAQPQVIWCEVGCGMGEHELMIFGNKDLPQRTPERPLVTFAVFAYNQESFIRDAIEGAFAQTYEPLEIILSDDCSDDETFLIMQQMAAAYRGPHKVVVRKNHENLGVLGHVLTVAKMAAGKYMVVAAGDDISFPDRTERQVSFLERESDRVVVVSSHDVIFDENCDLPNQKQDSNLRLRKQWYKNNNSWFHGGTACYRLGVLRELPLPTSRLLYEDMALINIFKAMGYSSGFMEIPTIRRRFHQLNLGMQRPERNPWDEERRILRRIEHAADVMDYAADVIEGEGGKAAKLRVQAAIMRKYAKWPDLNFVDRFLLFFESLKAGYMRKASAKVLLGKDVVLDIRSLWC”: the protein production entry was “failed”.

“MHVQEWLDTVPAAAVYAVVGLVIGLESLGIPLPGEIILVSAALLSSQHGGIDPLVLGACASAGAVIGDSIGYAIGRKGGRPLLAWLGGKFPRHFGEGHVATAERSFQKWGMWAVFFGRFVALLRIFAGPLAGVLRMPYWKFLIANVLGGIVWAGGTTAVIYYVGVVAEDWLKRFSWLGLVVAVLIGIASMLIVKRRAGKAQQTPEPVAAGE”: the protein production entry is “failed”.

“MHVVQGAKTMWNKIQVVSHGRGGLRSQCCETTMIGHPTPTPAQDSETQPSPQEHIPEKKPLPKEIGGRDGPEPTRYGDWEKNGRCIDFLEHHHHHH”: the protein production result is recorded as “failed”.

“MHYTETGSPRLAILIDADNTFRFINVIDELLEEISKYGDVSIRRIYGDWTETKMQRWKEILPKYAIQPIQQYANTKGKNSTDSALIIDAMDLLYTAPLDGFCIVSSDSDFTRLATRLRESGKQVYGFGEQKTPDSLIAACNKFIYIEILSKEKLSDPPEPTPISTSETSASVESKPPAAPSTPLSPAALAPGIRKSSRELAMDTRLISLIRSAISALSDDDGYAHIGEIKKYMIKNFPAFDSRNYGYSKFSELIKATGLFDIDKDKQRIKDKRKK”: the protein production result was “failed”.

In the case of “MIAHLLLSLALLLTAAKLGGVLAVRLGQPAVLGELVAGIALGALPALGLHGAAGLAHDPVLEALAELGVILLLFEVGLSTRLAELVKVGASAFLVACIGVVAPMALGYGVGAWLLPGASPLAHLFLGAALSATSVGITARVLRDMGRIGSPAGQIILGAAVIDDVLGLLVLAVMVGLAGGGGDGAGTWTVLALVGAKAVGFLGAALVAGRWAAPRLFAVAARLRAQGVLFTLALAVCLALSWAASAVELAPIVGAFAAGLVLEGVPFAELSGGEERLEERLTPLAAVLVPLFFVRMGLAVDLGALGTGSLALAGALSVAAIVGKQACALAVVTPGVDRLAVGLGMIPRGEVGLIFANIGLSLTAGGRPLLGPGAFAAIVAMVLVTTLVTPPLLRWRMGSAPAAAAVRPGPGVRAA”, the protein production result is given as “failed”.

In the case of “MIAHPVVGIVGIAGAYGRWLAQFLRTRMGLEVIGVDPALPDGLDDATLVARADVLIFSAPIRHTAALIERYAALAGARAAEQLWLDVTSIKQAPVAAMLASQAEVVGLHPMTAPPKSPTLKGRVMVVCRARVQRWSGWVDALCSALQAECVYATPEHHDRVMALVQAMVHATHLAQAGTLRDYAPLLGELRTLMPYRSASFELDTAVIARILSLNPSIYEDIQFGNPYVAEMLDRLLAQLQELRGLVVQGDDAARLRFRQAFLDANAQALQGDSLAAGNYTYERVGYLLADLTEPLTLSVYLPEDQPGSLRVLLHVFEQHGVNLSSIHSSRTPGGELHFRMGFEPESDRAALGRAAAQIDADRIGRVLERVDRER”, the protein production result was “failed”.

In the case of “MICLTSKMMAFLPYFLELKGKRVNIQALINDRVSQAIEAAGAPAGTPALVRQSAKAQFGDYQANGIMGAAKQLGTNPREFAQKVLDVLNLEGIASKTEIAGPGFINIFLSEEFLAAQAEAALADAR”, the protein production result is “failed”.

On to “MICTEALQRISFSSDLGQSDKAPPPVIEPSGLIRRDETLLDSSNSDFEFHISNSFDPGDSSPADEIFADGMILPFHVTAASTVPKRLYKYELPPITSSLSPSPLSPQPLPTKHSEKETNGRASGANSDSEAEKSSKSFWSFKRSSSLNCDIKKSLICSFPRLTRSNSTGSVTNSKRAMLRDVNNHRPSSRSSCCNAYQFRPQKHTGKKGEGGGSFSVIPVLNGPSTFGLGSILRHSNSKDKTKTKKKKNKK”, for which the protein production result is given as “failed”.
